Test results: patent US20150344548A1 (XBIOTECH, published 2015)

Target: T1, commercial wildtype SpA (Staphylococcus aureus protein A) (Staphylococcus aureus, UniProt A0A0H3K686 37-477)
T1 construct: Bought wildtype SpA; also called SpA-coated beads; antigen
Assay: Bio-Layer Interferometry (ForteBio Octet Red 96), 20 nM antigen

T1 sequence (A0A0H3K686 37-477 limits assumed): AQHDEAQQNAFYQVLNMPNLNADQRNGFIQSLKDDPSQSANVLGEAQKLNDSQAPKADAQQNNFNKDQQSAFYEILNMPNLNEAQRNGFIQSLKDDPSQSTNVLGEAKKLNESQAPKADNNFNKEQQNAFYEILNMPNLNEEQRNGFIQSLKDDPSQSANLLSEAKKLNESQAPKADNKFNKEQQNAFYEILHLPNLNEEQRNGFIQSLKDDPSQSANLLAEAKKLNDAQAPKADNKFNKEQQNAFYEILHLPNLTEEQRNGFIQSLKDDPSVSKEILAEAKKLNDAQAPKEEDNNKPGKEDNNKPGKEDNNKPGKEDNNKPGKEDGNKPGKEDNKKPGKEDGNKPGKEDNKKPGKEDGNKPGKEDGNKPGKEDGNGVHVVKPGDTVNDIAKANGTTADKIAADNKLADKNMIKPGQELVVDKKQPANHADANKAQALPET

B1: PA7.2-G3 Ab (antibody)
heavy: EVQLVESRGGLVQPGGSLRLSCAASGFTFSNYAMSWVRQAPGKGLEWVSTISGSDGGTYYADSVKGRFTISRDNSGNTVYLQMNSLREDDTAVYYCARVGLSAPVTFFDFWGQGTLVTVSSASTKGPSVFPLAPCSRSTSGGTAALGCLVKDYFPEPVTVSWNSGALTSGVHTFPAVLQSSGLYSLSSVVTVPSSSLGTQTYTCNVNHKPSNTKVDKRVELKTPLGDTTHTCPRCPEPKSCDTPPPCPRCPEPKSCDTPPPCPRCPEPKSCDTPPPCPRCPAPELLGGPSVFLFPPKPKDTLMISRTPEVTCVVVDVSHEDPEVQFKWYVDGVEVHNAKTKPREEQYNSTFRVVSVLTVLHQDWLNGKEYKCKVSNKALPAPIEKTISKTKGQPREPQVYTLPPSREEMTKNQVSLTCLVKGFYPSDIAVEWESSGQPENNYNTTPPMLDSDGSFFLYSKLTVDKSRWQQGNIFSCSVMHEALHNRFTQKSLSLSPGK
light: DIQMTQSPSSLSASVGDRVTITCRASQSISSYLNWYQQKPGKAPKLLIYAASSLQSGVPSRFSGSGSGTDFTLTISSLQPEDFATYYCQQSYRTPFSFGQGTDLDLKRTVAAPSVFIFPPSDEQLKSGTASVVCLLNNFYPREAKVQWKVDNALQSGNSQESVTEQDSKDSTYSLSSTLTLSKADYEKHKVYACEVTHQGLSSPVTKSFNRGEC
notes: Human IgG3; copies: 2 + 2
- Kd: < 1 pM
